# Results reported in US6835378B2, “Method and compositions for inhibiting thrombin-induced coagulation” (The Texas A&M University System University, priority 2001, dated 2004).
# “Also recorded” adds a separate entry of the source.
# T1: thrombin digested Fg (Homo sapiens, UniProt P02675)
# T1 construct: purchased Enzyme Research Labs
# T1 sequence (P02675 45-491 limits assumed): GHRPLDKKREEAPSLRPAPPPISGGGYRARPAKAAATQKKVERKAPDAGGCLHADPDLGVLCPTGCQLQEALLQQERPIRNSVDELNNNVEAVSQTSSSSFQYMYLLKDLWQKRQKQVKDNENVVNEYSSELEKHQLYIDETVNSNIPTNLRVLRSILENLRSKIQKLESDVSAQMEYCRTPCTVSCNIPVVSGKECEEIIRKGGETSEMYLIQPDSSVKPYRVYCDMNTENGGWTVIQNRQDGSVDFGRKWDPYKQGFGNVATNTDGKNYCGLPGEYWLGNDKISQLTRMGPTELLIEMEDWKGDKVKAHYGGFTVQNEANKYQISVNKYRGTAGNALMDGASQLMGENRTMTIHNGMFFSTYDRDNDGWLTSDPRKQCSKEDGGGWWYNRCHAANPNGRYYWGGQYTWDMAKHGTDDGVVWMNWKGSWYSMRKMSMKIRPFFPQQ
# T1 sequence (P02671 36-629 partner limits assumed): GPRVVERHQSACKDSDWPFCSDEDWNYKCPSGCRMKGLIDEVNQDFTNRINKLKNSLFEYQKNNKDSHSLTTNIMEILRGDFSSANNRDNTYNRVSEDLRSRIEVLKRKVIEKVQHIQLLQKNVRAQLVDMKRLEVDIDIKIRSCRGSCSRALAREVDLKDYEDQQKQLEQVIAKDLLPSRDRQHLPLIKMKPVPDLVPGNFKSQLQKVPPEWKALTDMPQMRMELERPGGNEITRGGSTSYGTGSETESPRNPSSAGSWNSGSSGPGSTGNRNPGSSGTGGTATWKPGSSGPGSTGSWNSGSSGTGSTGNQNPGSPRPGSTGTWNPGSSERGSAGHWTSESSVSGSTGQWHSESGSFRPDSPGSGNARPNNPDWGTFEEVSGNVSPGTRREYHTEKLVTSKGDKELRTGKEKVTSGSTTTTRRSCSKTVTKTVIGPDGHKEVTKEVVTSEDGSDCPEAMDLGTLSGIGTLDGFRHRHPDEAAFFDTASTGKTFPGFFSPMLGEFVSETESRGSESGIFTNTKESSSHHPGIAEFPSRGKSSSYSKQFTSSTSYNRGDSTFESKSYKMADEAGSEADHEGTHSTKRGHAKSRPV
# T1 sequence (P02679 27-437 isoform P02679-2 partner limits assumed): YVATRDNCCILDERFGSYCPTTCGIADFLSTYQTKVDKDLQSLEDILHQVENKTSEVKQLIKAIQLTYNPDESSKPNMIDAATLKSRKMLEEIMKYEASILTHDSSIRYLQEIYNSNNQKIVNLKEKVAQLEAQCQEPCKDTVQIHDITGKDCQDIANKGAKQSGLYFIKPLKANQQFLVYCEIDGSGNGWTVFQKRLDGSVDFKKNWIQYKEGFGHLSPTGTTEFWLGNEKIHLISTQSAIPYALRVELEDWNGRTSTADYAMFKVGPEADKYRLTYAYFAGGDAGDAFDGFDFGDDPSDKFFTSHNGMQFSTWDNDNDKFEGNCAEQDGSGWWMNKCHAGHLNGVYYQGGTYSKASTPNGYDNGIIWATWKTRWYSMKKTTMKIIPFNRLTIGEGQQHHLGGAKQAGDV
# Tests used:
# thrombin digested Fg = molecular target: T1, thrombin digested Fg; assay: ELISA with thrombin-digested Fg; format: binding; settings: Fg wells pretreated with thrombin 30 min 37° C.
# Procedure: For the ELISA with thrombin-digested Fg, the plate was coated with Fg and blocked as described above. The plate was washed three times with PBST and 50 μl of 1.0 NIH unit/ml of thrombin was added to the Fg coated wells. The plate was incubated at 37° C. for 30 min. The plate was washed three times with PBST and 50 μl of 1.0 NIH unit/ml of hirudin (Sigma) was added to the wells and incubated at 37° C. for 30 min. The plate was washed three times with PBST and blocked with 1% BSA for 1 h at room temperature. After washing three times with PBST, 100 μl of biotin labeled rSdrG(50-597) (25-1000 nM) or a rSdrG(50-597)/hirudin (1.0 NIH unit/ml) mixture was added to the wells and incubated for 1 h at room temperature. The plate was washed three times with PBST and a 1:5000 dilution of streptavidin-AP conjugated (Boehringer Mannheim) in PBST/0.1% BSA was added to the wells for 1 h at room temperature. The plate was washed three times with PBST and developed as described above.
# [1] = tested on: fibronectin, collagen types I and IV, vitronectin, laminin and thrombospondin; assay: ELISA: ligand specificity on other immobilized ECM proteins; format: binding; settings: data not shown
# [2] = molecular target: Fg Bβ chain peptide β1-25 (Homo sapiens, UniProt P02675); settings: read-out: KD for interaction with peptide β1-25; 10 nM fluorescein-labeled β1-25, 3 h, room temperature
# Chain of Fg Bβ chain peptide β1-25 (P02675 31-55 limits assumed): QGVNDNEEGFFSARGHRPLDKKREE
# Procedure: Fluorescence Polarization—Fluorescence polarization was used to determine the equilibrium dissociation constant (KD) for the interaction of rSdrG(50-597) with peptide β1-25. The peptide was labeled with fluorescein as previously described (18). Increasing concentrations of rSdrG(50-597) in PBS, pH 7.5, were incubated with 10 nM labeled peptide for 3 h in the dark at room temperature. Reactions were allowed to reach equilibrium. Polarization measurements were taken with a Luminescence Spectrometer LS50B (Perkin Elmer) using FL WinLab software (Perkin Elmer). Binding data was analyzed by nonlinear regression used to fit a binding function as defined by the following equation: [formula]
# [3] = tested on: thrombin catalyzed release of fibrinopeptides A and B; assay: Release of fibrinopeptides by thrombin, HPLC; format: biochemical; settings: for Percentage of FpB released: Fg 0.3 μM
# Procedure: Release of Fibrinopeptides by Thrombin—The thrombin catalyzed release of fibrinopeptides A and B was analyzed as follows. Fg solutions were diluted to 0.3 μM in 20 mM HEPES (pH 7.4), 150 mM NaCl, 5 mM ε-aminocapriotic acid, and 1.0 mM CaCl2. ε-aminocapriotic acid was included to inhibit any possible plasmin contaminant activity. […] The tubes were mixed by inversion and 500 μl aliquots were removed for the 15 and 60 min time points. The aliquots were incubated at room temperature and then immersed in boiling water for 15 min to halt the reaction. The aliquots were stored on ice for the remainder of the time course. At the end of the reaction the samples were centrifuged for 15 min at 4° C., and the supernatants were removed and stored at −20° C. overnight prior to analysis by high performance liquid chromatography.
# The fibrinopeptides released were monitored by reverse phase HPLC essentially as described (19). The samples were loaded onto a Waters Delta-Pak C18 column equilibrated with buffer A (25 mM NaH2PO4/Na2HPO4, pH 6.0). Fibrinopeptides were eluted with a linear gradient from 100% buffer A to 40% buffer B (Buffer A with 50% acetonitrile) and monitored by absorbance at 205 nm. Fibrinopeptide peak area was determined using the software Waters Millennium^32.
molecule,measurement,setting,value
"rSdrG(50-597): recombinant His-tagged A region (residues 50-597) of SdrG, a fibrinogen-binding MSCRAMM from S. epidermidis (protein) HHHHHHAEENTVQDVKDSNMDDELSDSNDQSSNEEKNDVINNSQSINTDDDNQIKKEETNSNDAIENRSKDITQSTTNVDENEATFLQKTPQDNTQLKEEVVKEPSSVESSNSSMDTAQQPSHTTINSEASIQTSDNEENSRVSDFANSKIIESNTESNKEENTIEQPNKVREDSITSQPSSYKNIDEKISNQDELLNLPINEYENKVRPLSTTSAQPSSKRVTVNQLAAEQGSNVNHLIKVTDQSITEGYDDSDGIIKAHDAENLIYDVTFEVDDKVKSGDTMTVNIDKNTVPSDLTDSFAIPKIKDNSGEIIATGTYDNTNKQITYTFTDYVDKYENIKAHLKLTSYIDKSKVPNNNTKLDVEYKTALSSVNKTITVEYQKPNENRTANLQSMFTNIDTKNHTVEQTIYINPLRYSAKETNVNISGNGDEGSTIIDDSTIIKVYKVGDNQNLPDSNRIYDYSEYEDVTNDDYAQLGNNNDVNINFGNIDSPYIIKVISKYDPNKDDYTTIQQTVTMQTTINEYTGEFRTASYDNTIAFSTSSGQGQGDLPPE",binding to thrombin digested Fg,thrombin digested Fg,significantly impaired; also recorded: unable to bind
same,binding to thrombin digested Fg,thrombin digested Fg; listed as SdrG,could not bind; also recorded: does not bind
same,binding to other immobilized ECM proteins,[1],failed to bind
same,Kd,[2],140 nM
same,FpA release by thrombin,[3],no apparent interference
same,FpB release by thrombin,[3]; 1:1 ratio of rSdrG(50-597) to Fg,significant decrease
same,FpB release by thrombin,[3]; 5:1 ratio (1.5 μM rSdrG(50-597)),decrease in the amount of FpB released; also recorded: effectively able to inhibit the release of FpB
same,Percentage of FpB released,"[3]; SdrG:Fg 1:1, 15 min",65.4%
same,Percentage of FpB released,"[3]; SdrG:Fg 1:1, 60 min",45.2%
same,Percentage of FpB released,"[3]; SdrG:Fg 2:1, 15 min",13.9%
same,Percentage of FpB released,"[3]; SdrG:Fg 2:1, 60 min",17.4%
same,Percentage of FpB released,"[3]; SdrG:Fg 5:1, 15 min",<0.001%
same,Percentage of FpB released,"[3]; SdrG:Fg 5:1, 60 min",<0.001%
